Reference: publication PMC10885103 (2023)
Bridges are numbered along the chain shown (N, C = ends). Where no end group is shown, it is not given here. [ ]: non-standard residue; d: D form.

Target: T1, TNFR-1 CRD2 72-116 (Homo sapiens, UniProt P19438)
T1 chain: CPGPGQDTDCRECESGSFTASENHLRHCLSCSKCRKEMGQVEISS
Assay: grating-coupled interferometry

B1: d-TCPB (peptide)
chain: [dC](cysteinyl)[dF][dH][dC][dI][dW][dL]G[dD][dE][dC]
modifications: disulfide 4-11; also: CRD2 with C-terminal biotin linker
In the case of B1, the Kd is reported as 1000 nM.
